Target: soluble extracellular domain of human DPP4 (residues S39-P766) (human), P27487
Test: SEC-MALS
Details: remark: other sources report otherwise

B1: soluble extracellular domain of human DPP4 (residues S39-P766), P27487 39-766 (domain or fragment)
chain: SRKTYTLTDYLKNTYRLKLYSLRWISDHEYLYKQENNILVFNAEYGNSSVFLENSTFDEFGHSINDYSISPDGQFILLEYNYVKQWRHSYTASYDIYDLNKRQLITEERIPNNTQWVTWSPVGHKLAYVWNNDIYVKIEPNLPSYRITWTGKEDIIYNGITDWVYEEEVFSAYSALWWSPNGTFLAYAQFNDTEVPLIEYSFYSDESLQYPKTVRVPYPKAGAVNPTVKFFVVNTDSLSSVTNATSIQITAPASMLIGDHYLCDVTWATQERISLQWLRRIQNYSVMDICDYDESSGRWNCLVARQHIEMSTTGWVGRFRPSEPHFTLDGNSFYKIISNEEGYRHICYFQIDKKDCTFITKGTWEVIGIEALTSDYLYYISNEYKGMPGGRNLYKIQLSDYTKVTCLSCELNPERCQYYSVSFSKEAKYYQLRCSGPGLPLYTLHSSVNDKGLRVLEDNSALDKMLQNVQMPSKKLDFIILNETKFWYQMILPPHFDKSKKYPLLLDVYAGPCSQKADTVFRLNWATYLASTENIIVASFDGRGSGYQGDKIMHAINRRLGTFEVEDQIEAARQFSKMGFVDNKRIAIWGWSYGGYVTSMVLGSGSGVFKCGIAVAPVSRWEYYDSVYTERYMGLPTPEDNLDHYRNSTVMSRAENFKQVEYLLIHGTADDNVHFQQSAQISKALVDVGVDFQAMWYTDEDHGIASSTAHQHIYTHMSHFIKQCFSLP
Question: B1 was tested. Which stoichiometry N did it give?
Answer: The stoichiometry N was 2.

From publication doi:10.1101/2024.07.12.603331
